Laboratory results taken from a protein production outcome set (Wang et al. 2014).

Experiment: label from the status in PepcDB records

Sequence	protein production
MTTIVPTSEENPFLAVVRFTSQLAWADAGPEAAEPEITRLCREAEESMVAEKWLELSSLMVTSAELVSSKISEKDLECTYTIICSIVKNAKSPEQVLEMVKAIASKVAQQPSDKASLRLKILFNLYNLVDHPYARFQVYMKALTLAVDGKVTEYIVSSFKKIDNFLKEWNIDIKDQRELFLAIANVLKENKSLVNESLKFLTKYLATFSNEDAQVLDEAKEEAVRAVIEFVKASSIFQCDLLDLPAVAQLEKDAKYAPVYQLLKIFLTQRLNAYTEFQNANSGFLQSYGLSNEDCVTKMRLLSLVDLASDESGKIPYTSIKDTLQVNEQDVELWIVKAITAKLIESALPNVNLGQSNGNLSEQSLRLGSIITTIESNKVTEEGSQASSSSAAAIQGLSVR	failed
MKVNETGVEELNPYPDRPGERDCQFYLRTGLCGYGSSCRYNHPTHLPQDVAYYKEELPERIGQPDCEYFLKTGACKYGPTCKYHHPKDRNGAQPVMFNVIGLPMRLGEKPCPYYLRTGTCRFGVACKFHHPQPDNGHSTAYGMSSFPAADLRYASGLTMMSTYGTLPRPQVPQSYVPILVSPSQGFLPPQGWAPYMAASNSMYNVKNQPYYSGSSASMAMAVALNRGLSESSDQPECRFFMNTGTCKYGDDCKYSHPGVRISQPPPSLINPFVLPARPGQPACGNFRSYGFCKFGPNCKFDHPMLPYPGLTMATSLPTPFASPVTTHQRISPTPNRSDSKSLSNGKPDVKKESSETEKPDNGEVQDLSEDASSP	failed
MIIKFTVVICTYNGAKRLPKVLDELQNQIDTEAISWEILVVDNNSTDSTKQVVQQYQNTCFKPGQLRYSFEPEQGLAIARQHAVTAARGELIGFLDDDNIPSLTWVASAYLFAQNHPCAGAYGSRIQGEFEVPPPDDFKRIAALLALTERGSKKLLYEPKKKVLPPGAGLVVRKQAWLENVPKRCFLQGRVCEPYLPGEDLEALLHIQQAGWDIWYNPEMQITHQIPHWRLKKDYLVDLCRGIGLSRYHTRMLSVKPWQAPVLFWLYIFNDVRKLILHLYKYRGRVKSDLIAACELELFIGSLLSPPYIWKAYIKKYFRKQRPVSFSSSVRCADYTQN	failed
MEVNNETMQKSKFGRICVFCGSSQGKKSSYQDAAVDLGNELVLRNIDLVYGGGSIGLMGLVSQAVHDGGRHVIGVIPKTLMPRELTGETVGEVRAVADMHQRKAEMARHSDAFIALPGGYGTLEELLEVITWAQLGIHDKPVGLLNVDGYYNSLLSFIDKAVEEGFISTNARQIIISAPTAKELVKKLEEYSPCHESVATKLCWEIERIDYSSED	failed
MKMMDANEIISFIQKSEKKTPVKVYIKGDLKEVTFPETVQAFVNKKSGVLFGEWSEIKTILDENSKYIVDYVVENDRRNSAIPMLDLKGIKARIEPGAIIRDHVEIGDNAVIMMNATINIGAVIGEGSMIDMNAVLGGRATVGKNCHVGAGAVLAGVIEPPSAKPVIVEDDVVIGANVVVLEGVTVGKGAVVAAGAVVTEDVPPYTVVAGTPARVIKEIDEKTKAKTEIKQELRQLNPEK	failed
MAQFYSAKRRTTTRQIITVSVNDLDSFGQGVARHNGKTLFIPGLLPQENAEVTVTEDKKQYARAKVVRRLSDSPERETPRCPHFGVCGGCQQQHASVDLQQRSKSAALARLMKHEVSEVIADVPWGYRRRARLSLNYLPKTQQLQMGFRKAGSSDIVDVKQCPILVPQLEALLPKVRACLGSLQAMRHLGHVELVQATSGTLMILRHTAPLSSADREKLECFSHSEGLDLYLAPDSEILETVSGEMPWYDSNGLRLTFSPRDFIQVNAGVNQKMVARALEWLDVEPEDRVLDLFCGMGNFTLPLATQAASVVGVEGVPALVEKGQQNARLNGLQNVTFYHENLEEDVTKQPWAKNGFDKVLLDPARAGAAGVMQQIIKLEPIRIVYVSCNPATLARDSEALLKAGYTIARLAMLDMFPHTGHLESMVLFSRVK	not failed
MSSKPLYTILTVFNPIFIYFTKRDNLHTLRFKKDRAIKISEELFPDELCERCGRCCILHAYKTEDGIKTIYCEHLDPETKLCKVYKDRFKHRCLTVMEGILAGVFPKDCPYVKNLKNYEEPWFYRHLRDLEHHHHHH	failed
MAKSSVANIFTFSNLSCGLLSLIMTLAASSTNNEYYKLACLFILIAGIIDRYDGRVARALNVSSELGKELDSLADLVSFGVAPSILAYHLCNFSSNFNFLGYIFVLIFPIAGAYRLARYNLSTFDGVFRGIPITLAGMFMALYSLIYLLLNTQPNAVLTIVIMLILSYLMVSNLKLKKL	not failed
MQNCATGMQMDWISLLKAQQADFLLRVKKPKTYDLSLLESQVKGCHSEIMAFWGEPFAKIQEVSRRQAEILAKNPPPIPPEYPEPPDWTIPFPIHFQQQAEDYFLREQIVDRLIVERLGKLLKKLPQDTVKNMVLDDEGNLRGESKFTYLLADNPKISVQVYVADGESFNGIKKDKIKWSVTQEDLKNHQVLIFLCLFYPSTGKLGYEKQAVVAGFLPTSHIAVTEPKLYFTPSHLLYAGGLSWYLESLTAKKEAKLDFLPVVIERTIPETIQTVPSEHPRKEIIGDWECWQTLRGHMRGINCLSFSSGCENGLPMLASGSRGETKLWDLNQGELIDTLSEYPWIVSGLVDEVNSLAFSADGQMLVSGGADSTIKIWHTGALDLIDILHKHNGIVRCAAFTPDGQMLATGGDDRRILFWDLMHRQVKAILSLDDTAAHSLVLSRDGQTLVTGSYRKIKVWQTSGSWFGKNLKDAQPLHTLMGHGHIVRSLAMSKDGQLLISGSWDQTIKIWHLATGRLIRTLKGHTDKVYAIALSPDEQIIASGSSDQTIKLWHLETGELLATFTGHTDIVTALTFTTSGEMLVSGSLDKTIKLWQRS	failed
MRLILNLIWLFFGGIWLALGYVFFGIIACIFIVTIPAGIASFRMANYALWPFGRTVVRNPKAGGFSALSNGLWFIIAGLWLAIGHLTTAAAQAITIIGIPLAIANIRMIPVTCFPFGKEIYDSNRIPFGYEPMVKF	failed
MDSAAVAFTTLDYVIFGVYLFVIVGLGLWVSQEEEGEEKDSADYFLASKALPFWAIGSSLIAANISAEQFIGMSGSGFRVGLAIASYEWMAAVTLLVIAWFFLPIYLEKEIYTMPQFLEERYDGRVRMLLAIFWLLVYVFVNLTSVLYMGGLSINVIMGFPLWASVLGLAAVATAYSLYGGLKAVAWTDVVQVVVLVGGGLLTTWVALDAYGGSEAGVVGGFTQLMGDASGRFNMILFEGELMYRNDEGALKDAYQLLPGLSVLFGGLWVANLFYWGCNQYIIQRALAAKSLKEAQRGLAFAGYLKLLLPLIVVVPGIVAFALDAPIQRGDEAYPWLLGEYVGSGFRGLAFAALVAAIISSLASMMNSASTIFTMDLYRNYTSREDVSERRLVRIGRAVALICIVVAAALAPQLADLDQVFQYIQEYTGFVSPGVLAIFVLGLFWSKATPNAALVSAVLSIPLSAAFKFWTPGVAFLNRMLIVFFISVALIVAISLLENEGEDHPKAIDVGGIERERDPIYNVAAFGILAITAALYAFFW	failed
MKKLVHLSDFHYDGLRLSEEMLAEAIAVSNQVQPDLVLLTGDYVTTTPQPIHQLAKRLQKLQSHAGIYAILGNHDLYQKNSKTEITQALTKAGIQVLWNEIAYPLGEELPIVGIVDYYYREFNPQLLFNQLEPTTPRIVLCHNPDTAAMLQGWRVDLQLSGHTHGGLEHHHHHH	failed
MKKVLILFAHPRMEKSRANTTLLKHIPSAENITFHDLYELYPDFNIDVEAEKQLLLLHDIIIWQHPFYWYSCPPLMKQWIDMVLEFGWAYGPGGTALKDKIIFNAITTGGANATYNAGGHNRFTMQEYLRPFEQTAHLCKMIYFPPFLVQGSHRLTDEELQRFSQQYVILLTKMSQGNFEEAHMKDITFLNEICVKPR	failed
MVQELLKQLQNGEAKFADVLAYIESRFEHQPTAFKNGQQQNAATENQGSAKVFSLAQIEGLNQTETLSLFAEHYAAVLNTPEGTDHQNIRQFMQHGWDGVTFEGEALQAK	failed
MSATGIKRSNLNTRPVQRDASAKQTAIKGPYGKSPGCTTSCGLRLPRKTEVTAAKLIKHLGCKFAKGLRLVVMRKKKRSPPSKVSSFSGRSQPPIIPINNDSHRSEAIEDCIQFINSSSSFTRSNSTS	failed
MSYLGGYGLIYLVTIVGYFILASFLGSFQLSSDLFNFEFYSSLSGISALMVWAFWLFLIYLNIILVVRRLHDLNKSGWMGLLLFIPVVQFFFMLYLLLASGTAGTNQYGPVRPSTFIEKLMAWLILIAILISLISTVGFFYYFSGTDTIQTPTQILQKGTEYF	failed
NSAAIQEMNREVEAAAKRTSPVFLTGEAGSPFETVARYFHKNGTPWVSPARVEYLIDMPMELLQKAEGGVLYVGDIAQYSRNIQTGITFIIGKAERCRVRVIASCSYAAGSDGISCEEKLAGLFSESVVRIPPLS	failed
MSTVETPVYVPRTVVHKFGGTSVADADCYRHVTRLLLAREETVQVTIVSAMKGVTDTLIALAEQAANHSPDWQVLWQQTRTRHCDAAQALLGEHAATLQDWLNTRFNELHEMLVALSVIGMLPSEVLDRLQGLGEVYSAQLLGHYLQSQGEDCVVLDARQVLVVSPGEFGAEVDWATSAQHLAHWRMQHPQRRVVVTGFVASDRTGRAITLGRNGSDYSGAIFAALFEADELHIWTDVDGVMSADPRVVPDAVQLDALSYDEACELAYFGAKVVHPQTMSPVMKRGVPIIIRNTFQPGHPGTRITADSVVSGSVKGLTLSPGLAVLNLEGTGLIGVPGTAERVFAALRNARLSVVMISQGSSEHSICCLVHQTEAERARDALLYAFAHELAIGHVQRVQLTNNISVLAAVGDGMAGHLGVAARLFESLRRAHVNILAIAQGSSERNISVAIDSQQATKALRAAHAAFWLSPQTFSIGVIGPGHVGEALLDQLCAAQQQLLSKANLDLRLRAIVSRRRMLLDERGLGSDWRHAFAAAPEAVDLDAFTAHLQAAHLPHAVIIDCSGSAEVADRYADWLAAGIHVVTPNKQAGSGPLHRYHAIRAAADASGARFRYEATVGAGLPVITTLRDLMDTGDSVTSIEGIFSGTLAWLFNKYDGSVPFSQLIAQARAMGYTEPDPRDDLSGVDVARKLVILARDAGRDISLEDVAVESLVPETLCQLSVADFMERLNEIDATFAERLAAAKQRGCVLRYVAQLSPGHVPSVSLIELPSDHAFVNLRLTDNVVQFTTRRYSENPLIVQGPGAGPEVTAAGVFADLLRVAAGEGARL	failed
MSTATLPHTVGKRLFRQTLLLALALSVVFSAVFTVVEYYRSKVSLNESVELLKKTHLDAITAALWSLDRQQIAAQIDGIHHYPFISYVAVVDQGGVVVESGTRSELFGDVRRIDLTATYNGRQVSLGSLYLEIDRQAIMRDALSTAAVTLLFQTLTITIVMLFTFMLFERQVTRHLAAAADYFTSFGFARVQQPLQLDKHRYGDEIDALVEAFNRMRESLAVAYQQQQGMLQAVRESEALLRAIARRIPNGGVWVVDTDGRYIMFEGSLVESLGLSGQEALGRMPGDLFGEPLADRLVGCYRLALAGGTLSEEIEYRERVLWIQFAPLEDEHGAVMAAVALGIDVTERRQAEAERREMLQRLGQAHKMEAVGRLAGGIAHDYNNKLTVILGYAHVLKLTGFQSKEAPEQLDQIIRAAEHSRDITRQLLAFTRSERVNPVRVDLNRLISQSSKSLTRLIGEDITLSHVAGADLWPVRIDPTQADQLLMNLVMNARDAIAGTGSVTIATSNVVLDRATVRHLQGASPGEYVLMTVSDTGCGMDPEVMEHIFEPFYTTKEMGKGTGLGLATVYGIVRQNGGAISVESEPGGGSVFSIYLPRFVGESHDVRRLGEVDETLPARTTLLVDDDDAVRDITALMLRRLGHTVITASDPDEAIHLCQQPGIVVDLILTDVIMPSMNGREMVRSILSHQKAAKVLYMSGYPADVVEGRGAVDADARLLSRLLKLK	failed
MKTRCGCKKIASYTVVKLILNRLDVAMNSTIRRWFASAGAMRRVFSTFAPYLGAGIKVTHIADDFSSATVEMRQHWYNTNYVGTHFGGSLYSMVDPMYMLLLMRSLGNDYIVWDKSASIDFIRPGKGVVKAHFELTDARLDEIREATADGDKYLPEWYIDIVDEAGTVVSRVHKVLYVRRKPAE	failed
IAQIPVSVYWMNKNHVYMGCSNNMVKLLNLNSRYDIVGKTYEDLYHEKSTSYYKKADKIVMDKGISLSLEEPFYCPDGTTKEIYLSNKVPLRDLEGKIIGMLGVSVDIT	failed
